Test: soluble on expression in E. coli; label from the status in PepcDB or PDB records

Sequence	soluble on expression in E. coli
MGSDKIHHHHHHVSKPHYKTTNWKQYNQALINRGSLTFWIDEDAIAKWKAKVEQPKKGRPRVFSDLAITTALMVKRIFSMPLRALQGFINSVFKLGDIPLSCPHYTCISKRAKTVNIAFKTKTRGAIKHLAIDSTGLKVYGEGEWKVKKHGTDGKRRVWRKLHIAVDTHSHEIIAAELSLSGVTDAEVMPNLLKQTHRKIRNISGDGAYDTKACHEAVRRKRALVLIPPREGAALWEQGHPRNLAVSWQQLHGSNKQWKKRYGYHRRSISETAMYRIKQLLGGTLSMRNYNAQVGETYAMIRALNKLTGLGMPETHYVA	not soluble
MGSDKIHHHHHHVSRLDQLNDWLHQALQGKPHHLTTASADASFRRYFRVHLADGATLIAMDAPPPQEDCRPFVKVAALFEQAGLNVPKVLAQDVENGFLLLTDLGAQTFLDVLNEDNADTLFRDAIDALVTWQLASRPGVLPAYDEALLRRELCLFPDWYVARHLNVELSESQRSTLENAFSTIVRYNLAQPSVYVHRDYMPRNLMISTPSPGILDFQDAVYGPISYDVASLFKDAFISWQEERVLDGTIRYWEKARKAGLPVRSDFGDFYRDFEWMGLQRHLKVLGIFARIHYRDGKPKYLADTPRFMNYVRQVCVRYGELRPLLRLLDELEKREPQFGYTF	not soluble
MGSDKIHHHHHHVTPFAQTAAQTDHYDVIVIGAGPSGSVAASLLHQQGKRVLVLEKQHFPRFSIGESLLPCCMQVIAEANMLDAVNQAGYQFKNGAAFNANGRSTYFDFTDKFTPGPGTTFQVERGDFDKLLADTAASQGVEIRYGQRVDAVDLSHNPRLTISDEQGASYELSADYLLDASGFGRVLPRLLDLERPSNLPSRTAIFTHIQDNIDSVDMGDYHFDRNKILISVHPDNRDIWYWLIPFSNGRCSLGVVGEPHLLGQDADLEATNLEATLIRLVREEPRLKQLLSRAEIIRKPAKLAGYSANVSTLASDKFALLGNAGEFLDPVFSSGVTIAMQSASIAAKCVVKQLNGESVDWQTEYAQPLMRGVDTFRTYVQAWYDGRFQDVIFYQDPNPKIKQMICSILAGYAWDESNPFVAESERRLNMVVELCR	not soluble
MGSDKIHHHHHHVVLDTDLASIQESRNLVQKAKEAQLHLAHFNEQQIDKILASIVAAVEENAEGLARMACQETEYGIVEHKIAKNLFAARDVYESTKHIKTIGTISEDPDRKVIRYAAPMGVLVGITPRTNPTSTIIHNALCAIKGANAIVFSPHPFAVQCGCATASLINEAAVKAGAPDGVCSCLSMTSLQASHELMHHPDVAAIIATGGPGLVKSAYSAGKPAFGVGSGNVPVFIERSADIKQAVNDIMVSKTFDNGMICASEQAILADQPIKDEVIKELQNQGAYFLSPEEVQKVGRVVIHANGSMNNALVGQSPAVIAQRAGISIPADTALLIAPMEGYGKDYPLSHEKLTTVLGFYVVQDWKEACHLSIELLKLGGIGHSCAIHSQNEQVIREFLAKPVFRIIVNTPSALGGIGQTTGIMPSLTLGCGTWGGSSISENLGPQHLINIKHLTYGLKKVAFHKVPATQGNVSPLLPPTKATSWDIKSDDIDDVVKQVLQQLKIG	not soluble
MGSDKIHHHHHHVVNAIEVSDISKQFVLRHTRSIKEAVVWLAKGRKGDLSEKFHALKNVTLEVKTGETVALLGLNGSGKSTLLKHISGVMLPDSGTVRTRGRVAGLIEVGAGFHPDLSGRDNVYLNGAILGMTEQQVNDRFDDIVEFSETGQFIDTEVKFYSSGMYLRLAFSVAVHTDPEVFLIDEILAVGDEPFQRKCIDKIQELARNGKTLVVVSHDLDLVSRICARGILLEHGNVKFDGSIHDAVALLRA	not soluble
MGSIWELDFYSRPILDENQKKVWEVVICESPLDIRTKTDSLFRYAQYCPSTEVNSAWLRTAIQEAISKAGKAPIKIRFFRRQMNNMIVKACEDAGIPALPSRRTLALNQWLKQRMEEVYPQEPGYQGVTTPSVRLDSPLPQRLPDALEGQQWVFVSLSAADLAEMPDWEIGFSEAFPLDFVQVSPETRIPGVLIFSPRALPIAGWMSGLELAFLRVDTSQGMRLVLETGATESWILANIKNPTTVQEARGFEEAKQKANGVHFIGVQSNPEAESFAGFWLLQELGVLEHHHHHH	not soluble
MGSLKIYPSKLSGDVKIPPSKSMAHRAVICSSLSNGKSRISNIDFSDDIIATIRAMTSLGAIIEKKEDILEISGIFSKEGILNRENQLNQPKLTIDCNESGSTLRFLVPISLAFDGVKRFIGRGNLGKRPLDTYYEIFDRQNIKYSYKENQLDLIISGKLKPDEFRVKGNISSQFITGLLFILPTLESDSKIIITTELESKGYLDLTLSTIKDFGVEIINNNYKEFIIKGNQTYKARDYKVEGDYSQGAFYLSADAIGEDISILDLKEDSLQGDSEVVEILSRMGMEILREGNKIKGITNGLNGTLIDASQCPDIIPVLSVVASLSIGKTTIINAGRLRIKECDRLHAINVELSKLGANIEEKEDSLIIEGVSKLNGGVEVWSHKDHRIAMTLAIASCRCDKPIILKDFECVSKSYPHFFKDFKMLGGRIDEWNMGK	not soluble
MGSLVREWVGFQQFPAATQEKLIEFFGKLKQKYLIVKMIQGAIRNDIKTSGKPL	not soluble
MGSMRICIFMARGLEGCGVTKFSLEQRDWFIKNGHEVTLVYAKDKSFTRTSSHDHKSFSIPVILAKEYDKALKLVNDCDILIINSVPATSVQEATINNYKKLLDNIKPSIRVVVYQHDHSVLSLRRNLGLEETVRRADVIFSHSDNGDFNKVLMKEWYPETVSLFDDIEEAPTVYNFQPPMDIVKVRSTYWKDVSEINMNINRWIGRTTTWKGFYQMFDFHEKFLKPAGKSTVMEGLERSPAFIAIKEKGIPYEYYGNREIDKMNLAPNQPAQILDCYINSEMLERMSKSGFGYQLSKLNQKYLQRSLEYTHLELGACGTIPVFWKSTGENLKFRVDNTPLTSHDSGIIWFDENDMESTFERIKELSSDRALYDREREKAYEFLYQHQDSSFCFKEQFDIITK	soluble
MGSRCVAAANCPFGKLPGQSCVRKSDPSLAFNIPSNQDNCPMGQVCITAGESQVGHCCPVICPLNTTTDTRYSCDPDAAPALKCPSDSHYCYFLSGNFNKIQNFICNANSDGSFSQAACCRRPCNAMAPNALYVDYHCMPRGQLNSACTSNAQCGGGEGMECMKGQCQCQQNFHPAVDVLTNPLKNPSQSCSRDCESENLSKDTSCMKAVPLNSLCFIQKQCPQNSGCYRGRCMCRCGFAAKNGKCVEIPAPPTTTSAPAPAIIPGVPINPGNDLFKLFGQFLGAGNGGGGLNFG	not soluble
MGSSHHHHHHDYDIPTTENLYFQGHMKVKILVDSTADVPFSWMEKYDIDSIPLYVVWEDGRSEPDEREPEEIMNFYKRIREAGSVPKTSQPSVEDFKKRYLKYKEEDYDVVLVLTLSSKLSGTYNSAVLASKEVDIPVYVVDTLLASGAIPLPARVAREMLENGATIEEVLKKLDERMKNKDFKAIFYVSNFDYLVKGGRVSKFQGFVGNLLKIRVCLHIENGELIPYRKVRGDKKAIEALIEKLREDTPEGSKLRVIGVHADNEAGVVELLNTLRKSYEVVDEIISPMGKVITTHVGPGTVGFGIEVLERKR	soluble
MGSSHHHHHHGGTGENLYFQGGSGRDREVVECLLGMEQWLRELNRPLASAGVGGSVDVGASSSLLSGFPPCMEGDALRSAYRSALSELRLLVLGVLNTMPWWRVVETVAGNPPAAQTGGARTASAGGGDNSSSEAGAARVAARHAGGWDRSAAALHVITRWHARLQIAFERVCLVLIDQSQQTVRGVLEVLLKPCQLRPPVRDGARRSIPSDSFIRVLNAVATKYSPVYVVELLEGCIADFMPRRRWAERRHHVACTAVLLYLALEGHTPAYHPQLGNSYSLQRAVRLLTSLRSRRADGRCALSGSPWLLPHATGSYSLTLP	not soluble
MGSSHHHHHHSSASMTGGQQMGRTLYDDDDKDRWGSELETGRQKARGAATRARQKQRASLETMDKAVQRFRLQNPDLDSEALLTLPLLQLVQKLQSGELSPEAVFFTYLGKAWEVNKGTNCVTSYLTDCETQLSQAPRQGLLYGVPVSLKECFSYKGHDSTLGLSLNEGMPSESDCVVVQVLKLQGAVPFVHTNVPQSMFSYDCSNPLFGQTMNPWKSSKSPGGSSGGEGALIGSGGSPLGLGTDIGGSIRFPSAFCGICGLKPTGNRLSKSGLKGCVYGQTAVQLSLGPMARDVESLALCLKALLCEHLFTLDPTVPPLPFREEVYRSSRPLRVGYYETDNYTMPSPAMRRALIETKQRLEAAGHTLIPFLPNNIPYALEVLSTGGLFSDGGRSFLQNFKGDFVDPCLGDLILILRLPSWFKRLLSLLLKPLFPRLAAFLNNMRPRSAEKLWKLQHEIEMYRQSVIAQWKAMNLDVLLTPMLGPALDLNTPGRATGAVSYTMLYNCLDFPAGVVPVTTVTAEDDAQMELYKGYFGDIWDIILKKAMKNSVGLPVAVQCVALPWQEELCLRFMREVEQLMTPQKQPS	soluble
